Assay results: patent US20190153097A1 (AGENCY FOR SCIENCE TECHNOLOGY AND RESEARCH, published 2019)

Target: T1, human CTLA-4 (human, UniProt P16410 36-161, limits assumed)
T1 construct: Soluble protein, construct not described; also called huCTLA-4; CD152
Assay: blocking ELISA: CD80 coated, antibody pre-incubated with human CTLA-4, binding of CTLA-4 to CD80 detected

T1 sequence (P16410 36-161 limits assumed): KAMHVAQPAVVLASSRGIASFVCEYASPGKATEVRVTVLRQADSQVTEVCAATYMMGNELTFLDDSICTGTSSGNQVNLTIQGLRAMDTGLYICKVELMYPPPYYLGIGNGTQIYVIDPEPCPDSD

B1: L3D10 (commercial mouse anti-human CTLA-4 IgG1) (antibody, V domains shown)
VH: QVQLKESGPGLVAPSQSLSITCTVSGFSLTSYGLSWVRQPPGKGLEWLGVIWYDGNTNFHSALISRLTISKDNSKSQVFLELNSLQTDDTATYYCAKTEGHYYGSNYGYYALDYWGQGTSVTVSS
VL: DIQMTQSPASLSVSVGETVTITCRASENIYSNLAWYQQKQGKSPQLLVYAATNLADGVPSRFSGSGSGTQYSLKINSLQSEDFGTYFCQHLWGTPYTFGGGTKLEIK
IC50 (read off the curve): ~2 nM
